The record followed here is patent US20040110161, “Method for detecting mutations in nucleotide sequences” (published 2004).

For data set [1], the target named is T1, MutS (Cy5-labeled) (Escherichia coli, UniProt P23909 P23909:1-853).
T1 sequence: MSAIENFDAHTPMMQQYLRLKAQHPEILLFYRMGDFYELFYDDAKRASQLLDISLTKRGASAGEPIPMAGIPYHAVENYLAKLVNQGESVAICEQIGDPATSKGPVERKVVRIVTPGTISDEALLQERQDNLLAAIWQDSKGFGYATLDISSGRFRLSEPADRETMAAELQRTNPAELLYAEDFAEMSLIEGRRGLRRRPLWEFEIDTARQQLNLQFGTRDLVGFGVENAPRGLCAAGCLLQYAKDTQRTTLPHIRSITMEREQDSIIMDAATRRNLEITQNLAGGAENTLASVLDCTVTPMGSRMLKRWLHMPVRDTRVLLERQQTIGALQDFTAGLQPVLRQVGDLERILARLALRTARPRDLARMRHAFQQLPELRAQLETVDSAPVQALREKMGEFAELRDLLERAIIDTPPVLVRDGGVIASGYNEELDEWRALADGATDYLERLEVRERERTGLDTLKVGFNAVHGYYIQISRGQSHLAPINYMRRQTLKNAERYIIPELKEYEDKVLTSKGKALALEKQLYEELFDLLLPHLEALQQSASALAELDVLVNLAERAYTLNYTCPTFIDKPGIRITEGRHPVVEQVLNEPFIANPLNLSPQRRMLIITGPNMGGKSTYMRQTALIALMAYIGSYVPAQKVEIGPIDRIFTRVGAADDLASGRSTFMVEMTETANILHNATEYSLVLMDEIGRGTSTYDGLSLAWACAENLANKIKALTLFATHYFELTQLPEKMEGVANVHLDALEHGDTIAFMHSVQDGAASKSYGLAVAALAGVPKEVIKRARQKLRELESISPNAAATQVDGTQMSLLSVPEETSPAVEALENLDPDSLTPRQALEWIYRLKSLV
The data set is described as follows: impedance spectroscopy; no or only very slight binding. The note with it: tags: Cy5 nonspecific amine label; also Gene Check unlabeled in EMSA; hairpin. The method, then:
(§1) The individual electrodes were measured in aqueous K₃/K₄Fe(CN)₆ solution (Darmstadt, Germany) (20 mM in 20 mM tris buffer, 100 mM KCl, 5 mM MgCl), in the frequency range from 100 mHz to 1 MHz […], before and after incubating with mutS. The measured values are shown in the Bode diagram. The measurements were carried out, at room temperature, on an IM 6e impedance measuring desk supplied by Zahner Messtechnik.
(§2) The advantage of this method is that it is possible to carry out measurements on the samples without destroying them and without using labels. The mutation-recognizing E. coli mutS protein was used as a model system for the binding of mispairing-recognizing substrates, while Seq. ID Nos. 50 and 51 were used as duplex-forming oligonucleotides. […] The results of the measurement are depicted in FIGS. 29A and 29B.
Background: A gel shift assay detects complexes by their altered migration in electrophoresis.

In data set [2] the target is T1, MutS (Cy5-labeled). The data set is described as follows: impedance spectroscopy; 100 mM KCl, 5 mM MgCl2. The note with it: tags: Cy5 nonspecific amine label; also Gene Check unlabeled in EMSA; hairpin, two G/T mismatches. The method, then: as §1, §2
Data set [3] concerns the target T1, MutS (Cy5-labeled). The data set is described as follows: EMSA; 150 mM KCl, 10 mM MgCl2; labeled and unlabeled. The note with it: tags: Cy5 nonspecific amine label; also Gene Check unlabeled in EMSA; label: 5'-biotin (SPR); 5'-32P (EMSA); G/T mismatch. The method, then: Subsequently, the band shift method was used to check whether the Cy™5-conjugated mutS proteins were functionally active, i.e. whether they were still able to bind specifically to base mispairings. For this, heteroduplexes were generated by hybridizing the oligonucleotides […] (Seq. ID No. 6) and “GT” (Seq. ID No. 7), respectively, with the “sense” oligonucleotide (Seq. ID No. 11) by heating for 5 minutes at 95° C. in […] tris-HCl, 100 mM KCl, 5 mM MgCl₂, followed by cooling slowly down to room temperature. […] Using T₄ polynucleotide kinase (New England Biolabs, Frankfurt), 10 pmol each of the two heteroduplexes which wer produced using the “AT” and “GT” oligonucleotides were radioactively labeled, in accordance with the manufacturer's instructions, with 150 μCi of ³²P-ATP at their 5′ ends and purified through Sephadex G50 gel filtration columns (Pharmacia, Uppsala, Sweden) in accordance with the manufacturer's instructions. […] After the run, the gels were dried and analyzed by autoradiography (FIG. 6).

The target in data set [4] is T2, MBP-MutS fusion (Cy5-labeled) (Escherichia coli, UniProt P23909 P23909:1-853).
T2 chain: T1 sequence
Nature of the data set: hydrogel chip fluorescence. The note with it: label: 5'-biotin, 5'-Cy3. From the text:
(§3) The biotinylated “sense” oligonucleotide (Seq. ID No. 10) was electronically addressed to the individual positions on the hydrogel chip, for 60 sec. and at a voltage of 2.1 V, in the Nanogen workstation loading appliance. The hybridization with the second-strand AT (Seq. ID No. 12), GT (Seq. ID No. 13), AA (Seq. ID No. 14), AG (Seq. ID No. 15), CA (Seq. ID No. 16), CC (Seq. ID No. 17), CT (Seq. ID No. 18), GG (Seq. ID No. 19), TT (Seq. ID No. 20), ins+1T (Seq. ID No. 21), ins+2T (Seq. ID No. 22) and ins+3T (Seq. ID No. 23) oligonucleotides was carried out for 120 sec. at 2.1 V. The loading scheme is shown in Table 45; the name of each second-strand oligonucleotide indicates the mispairing or insertion (“ins”) which is formed on hybridization.
(§4) After the loading, the chips were taken out of the loading appliance, filled with 1 ml of blocking buffer and incubated at room temperature for 60 min in order to saturate nonspecific protein-binding sites. The binding of E.coli mutS (ChipA), MBP-MutS (ChipB), Thermus aquaticus mutS (ChipC) and Thermus thermophilus mutS (Chip D) to the resulting DNA double strands was then tested. For this, the chips were incubated for 60 min with in each case 2-3 μg of the Cy™5-labeled mutS proteins in 100 μl of incubation buffer. The chips which were incubated with E.coli mutS and MBP mutS were incubated at room temperature while the chips which were incubated with Thermus aquaticus mutS and Thermus thermophilus mutS were incubated at 37° C. After this incubation, the chips were washed by hand with 10 ml of incubation buffer and inserted into the Nanogen reader. In the reader, the chips were washed, at a temperature of 37° C. (E.coli mutS and MBP-mutS) or 50° C. (Thermus aquaticus mutS and Thermus thermophilus mutS), 70-80× with in each case 0.25 ml of washing buffer.
(§5) Finally, the Cy™3 and Cy™5 fluorescence intensities at the individual positions on the chips were measured in the Nanogen reader using the following instrument settings: high sensitivity (“high gain”) in the case of Cy™5, low sensitivity (“low gain”) in the case of CY™3; 256 μs integration time. Care was taken to ensure that the Cy™3 fluorescence intensity was distributed homogeneously over the chip surface.

Data set [5] deals with T1, MutS (Cy5-labeled). The data set is described as follows: hydrogel chip fluorescence. The note with it: tags: Cy5 nonspecific amine label, also Gene Check unlabeled in EMSA.
Source text: as §3, §4, §5

Residue numbers refer to the chain shown, from its start.

With ATTCGATCGGGGCGGGGCGAGCTTTTGCTCGCCCCGCCCCGATCGAAT (structured_DNA, 5'-SH, amino modifier X in loop) [hairpin perfectly paired], in the data set with MutS (Cy5-labeled) [1], the binding result was “no binding”.
Regarding ATTCGATCGGGGCGGGGCGAGCTTTTTGCTCGCCTTGCCCCGATCGAAT (structured_DNA, 5'-SH, amino modifier X in loop) [hairpin with two GT mispairings], the binding result with MutS (Cy5-labeled) [2] is reported as “binds”.

B1: sense(36)/GT (dsDNA)
DNA 1: AAGCATACGGAAGTTAAAGTGCGGATCATCTCTAGC
DNA 2: TGGCTAGAGATGATCCGCGCTTTAACTTCCGTATGC
With B1, the binding result in the data set with MutS (Cy5-labeled) [3] is “binds”.

B2: sense/TT mismatch (dsDNA)
DNA 1: AAGCATACGGAAGTTAAAGTGCGGATCATCTCTAGCCA
DNA 2: B1 DNA 2 with G19T
Regarding B2, the binding signal is 1.94 fold vs AT in data set [4] (T/T mismatch) and 1.82 fold vs AT in the data set with MutS (Cy5-labeled) [5] (label: 5'-biotin, 5'-Cy3, T/T mismatch).

B3: sense/AA mismatch (dsDNA)
DNA 1: B2 DNA 1
DNA 2: B1 DNA 2 with G19A, T21A
With B3, the binding signal amounted to 4.03 fold vs AT in data set [4] (A/A mismatch) and 13 fold vs AT with MutS (Cy5-labeled) [5] (label: 5'-biotin, 5'-Cy3, A/A mismatch).

B4: sense/AG mismatch (dsDNA)
DNA 1: B2 DNA 1
DNA 2: B1 DNA 2 with G19A, C20A
On to B4, for which the binding signal in data set [4] (A/G mismatch) was determined as 2.72 fold vs AT; in the data set with MutS (Cy5-labeled) [5] (label: 5'-biotin, 5'-Cy3, A/G mismatch) it was 3.34 fold vs AT.

B5: sense/GG mismatch (dsDNA)
DNA 1: B2 DNA 1
DNA 2: B1 DNA 2 with G19A, C20G
With B5, the binding signal in data set [4] (G/G mismatch) is 6.5 fold vs AT; with MutS (Cy5-labeled) [5] (label: 5'-biotin, 5'-Cy3, G/G mismatch) it was 18.4 fold vs AT.

B6: sense/CT mismatch (dsDNA)
DNA 1: B2 DNA 1
DNA 2: B1 DNA 2 with G19C
For B6, the binding signal was found to be 3.56 fold vs AT in data set [4] (C/T mismatch) and 6.24 fold vs AT in the data set with MutS (Cy5-labeled) [5] (label: 5'-biotin, 5'-Cy3, C/T mismatch).

B7: sense/AC mismatch (dsDNA)
DNA 1: B2 DNA 1
DNA 2: B1 DNA 2 with G19A, T21C
As to B7, the binding signal came out at 2.53 fold vs AT in data set [4] (A/C mismatch) and 5.73 fold vs AT with MutS (Cy5-labeled) [5] (label: 5'-biotin, 5'-Cy3, A/C mismatch).

B8: sense/GT mismatch (dsDNA)
DNA 1: B2 DNA 1
DNA 2: B1 DNA 2
For the molecule B8, the binding signal in data set [4] (G/T mismatch) was determined as 22.3 fold vs AT; with MutS (Cy5-labeled) [5] (label: 5'-biotin, 5'-Cy3, G/T mismatch), 29 fold vs AT.

B9: sense/CC mismatch (dsDNA)
DNA 1: B2 DNA 1
DNA 2: B1 DNA 2 with G17C, G19A
On to B9, for which the binding signal with MutS (Cy5-labeled) [5] (label: 5'-biotin, 5'-Cy3, C/C mismatch) was 1.37 fold vs AT.

B10: sense/AT perfect duplex (dsDNA)
DNA 1: B2 DNA 1
DNA 2: B1 DNA 2 with G19A
In the case of B10, the binding signal in the data set with MutS (Cy5-labeled) [5] (label: 5'-biotin sense, 5'-Cy3 AT) was determined as 1 fold vs AT.
